Molecular target: T1, TNFR1 (Homo sapiens, UniProt P19438)
T1 chain: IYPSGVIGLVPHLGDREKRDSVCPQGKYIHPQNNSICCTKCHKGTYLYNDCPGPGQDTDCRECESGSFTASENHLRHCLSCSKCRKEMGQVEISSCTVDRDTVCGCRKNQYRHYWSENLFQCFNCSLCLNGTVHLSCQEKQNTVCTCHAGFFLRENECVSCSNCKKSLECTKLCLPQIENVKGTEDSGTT
Experiment: yeast display SC50

| Binder | apparent Kd (screen) |
| --- | --- |
| E7H (designed binder) SMEEEVHKAAKEYEKKKKEAIEKHLEKLKAKDKEAAERFLKELEEAAKEYAKDEAKTMSEEEAKRRAKKYKEKVLLSELSEEEQKEIKEAEEKLVRTILKYVEEAAK | 4.39 nM |
| K23F (designed binder) SMEEEVEKAAKEYEKKKKEAIEFHLEKLKAKDKEAAERFLKELEEAAKEYAKDEAKTMSEEEAKRRAKKYKEKVLLSELSEEEQKEIKEAEEKLVRTILKYVEEAAK | 0.79 nM |
| Y50H (designed binder) SMEEEVEKAAKEYEKKKKEAIEKHLEKLKAKDKEAAERFLKELEEAAKEHAKDEAKTMSEEEAKRRAKKYKEKVLLSELSEEEQKEIKEAEEKLVRTILKYVEEAAK | 13.8 nM |
| E91V (designed binder) SMEEEVEKAAKEYEKKKKEAIEKHLEKLKAKDKEAAERFLKELEEAAKEYAKDEAKTMSEEEAKRRAKKYKEKVLLSELSEEEQKEIKEAVEKLVRTILKYVEEAAK | 7.07 nM |
| K23Q (designed binder) SMEEEVEKAAKEYEKKKKEAIEQHLEKLKAKDKEAAERFLKELEEAAKEYAKDEAKTMSEEEAKRRAKKYKEKVLLSELSEEEQKEIKEAEEKLVRTILKYVEEAAK | 0.446 nM |
| E62D (designed binder) SMEEEVEKAAKEYEKKKKEAIEKHLEKLKAKDKEAAERFLKELEEAAKEYAKDEAKTMSEEDAKRRAKKYKEKVLLSELSEEEQKEIKEAEEKLVRTILKYVEEAAK | 0.446 nM |
| E104H (designed binder) SMEEEVEKAAKEYEKKKKEAIEKHLEKLKAKDKEAAERFLKELEEAAKEYAKDEAKTMSEEEAKRRAKKYKEKVLLSELSEEEQKEIKEAEEKLVRTILKYVEHAAK | 0.446 nM |
| T57I (designed binder) SMEEEVEKAAKEYEKKKKEAIEKHLEKLKAKDKEAAERFLKELEEAAKEYAKDEAKIMSEEEAKRRAKKYKEKVLLSELSEEEQKEIKEAEEKLVRTILKYVEEAAK | 0.49 nM |
| K15M (designed binder) SMEEEVEKAAKEYEMKKKEAIEKHLEKLKAKDKEAAERFLKELEEAAKEYAKDEAKTMSEEEAKRRAKKYKEKVLLSELSEEEQKEIKEAEEKLVRTILKYVEEAAK | 0.539 nM |
| E81T (designed binder) SMEEEVEKAAKEYEKKKKEAIEKHLEKLKAKDKEAAERFLKELEEAAKEYAKDEAKTMSEEEAKRRAKKYKEKVLLSELSTEEQKEIKEAEEKLVRTILKYVEEAAK | 0.718 nM |
| K31S (designed binder) SMEEEVEKAAKEYEKKKKEAIEKHLEKLKASDKEAAERFLKELEEAAKEYAKDEAKTMSEEEAKRRAKKYKEKVLLSELSEEEQKEIKEAEEKLVRTILKYVEEAAK | 0.956 nM |
| A106H (designed binder) SMEEEVEKAAKEYEKKKKEAIEKHLEKLKAKDKEAAERFLKELEEAAKEYAKDEAKTMSEEEAKRRAKKYKEKVLLSELSEEEQKEIKEAEEKLVRTILKYVEEAHK | 1.54 nM |
| K17E (designed binder) SMEEEVEKAAKEYEKKEKEAIEKHLEKLKAKDKEAAERFLKELEEAAKEYAKDEAKTMSEEEAKRRAKKYKEKVLLSELSEEEQKEIKEAEEKLVRTILKYVEEAAK | 1.05 nM |
| K88M (designed binder) SMEEEVEKAAKEYEKKKKEAIEKHLEKLKAKDKEAAERFLKELEEAAKEYAKDEAKTMSEEEAKRRAKKYKEKVLLSELSEEEQKEIMEAEEKLVRTILKYVEEAAK | 0.446 nM |
| K64D (designed binder) SMEEEVEKAAKEYEKKKKEAIEKHLEKLKAKDKEAAERFLKELEEAAKEYAKDEAKTMSEEEADRRAKKYKEKVLLSELSEEEQKEIKEAEEKLVRTILKYVEEAAK | 1.05 nM |
| A46F (designed binder) SMEEEVEKAAKEYEKKKKEAIEKHLEKLKAKDKEAAERFLKELEEFAKEYAKDEAKTMSEEEAKRRAKKYKEKVLLSELSEEEQKEIKEAEEKLVRTILKYVEEAAK | 16.7 nM |
| A55T (designed binder) SMEEEVEKAAKEYEKKKKEAIEKHLEKLKAKDKEAAERFLKELEEAAKEYAKDETKTMSEEEAKRRAKKYKEKVLLSELSEEEQKEIKEAEEKLVRTILKYVEEAAK | 10.4 nM |
| E86N (designed binder) SMEEEVEKAAKEYEKKKKEAIEKHLEKLKAKDKEAAERFLKELEEAAKEYAKDEAKTMSEEEAKRRAKKYKEKVLLSELSEEEQKNIKEAEEKLVRTILKYVEEAAK | 0.653 nM |

| Binder | apparent Kd (screen) |
| --- | --- |
| K73N (designed binder) SMEEEVEKAAKEYEKKKKEAIEKHLEKLKAKDKEAAERFLKELEEAAKEYAKDEAKTMSEEEAKRRAKKYKENVLLSELSEEEQKEIKEAEEKLVRTILKYVEEAAK | 13.8 nM |
| K56D (designed binder) SMEEEVEKAAKEYEKKKKEAIEKHLEKLKAKDKEAAERFLKELEEAAKEYAKDEADTMSEEEAKRRAKKYKEKVLLSELSEEEQKEIKEAEEKLVRTILKYVEEAAK | 7.78 nM |
| Y70W (designed binder) SMEEEVEKAAKEYEKKKKEAIEKHLEKLKAKDKEAAERFLKELEEAAKEYAKDEAKTMSEEEAKRRAKKWKEKVLLSELSEEEQKEIKEAEEKLVRTILKYVEEAAK | 8.56 nM |
| K29V (designed binder) SMEEEVEKAAKEYEKKKKEAIEKHLEKLVAKDKEAAERFLKELEEAAKEYAKDEAKTMSEEEAKRRAKKYKEKVLLSELSEEEQKEIKEAEEKLVRTILKYVEEAAK | 0.869 nM |
| K68V (designed binder) SMEEEVEKAAKEYEKKKKEAIEKHLEKLKAKDKEAAERFLKELEEAAKEYAKDEAKTMSEEEAKRRAVKYKEKVLLSELSEEEQKEIKEAEEKLVRTILKYVEEAAK | 1.27 nM |
| K107V (designed binder) SMEEEVEKAAKEYEKKKKEAIEKHLEKLKAKDKEAAERFLKELEEAAKEYAKDEAKTMSEEEAKRRAKKYKEKVLLSELSEEEQKEIKEAEEKLVRTILKYVEEAAV | 2.05 nM |
| E81K (designed binder) SMEEEVEKAAKEYEKKKKEAIEKHLEKLKAKDKEAAERFLKELEEAAKEYAKDEAKTMSEEEAKRRAKKYKEKVLLSELSKEEQKEIKEAEEKLVRTILKYVEEAAK | 0.593 nM |
| E42K (designed binder) SMEEEVEKAAKEYEKKKKEAIEKHLEKLKAKDKEAAERFLKKLEEAAKEYAKDEAKTMSEEEAKRRAKKYKEKVLLSELSEEEQKEIKEAEEKLVRTILKYVEEAAK | 0.368 nM |
| L99D (designed binder) SMEEEVEKAAKEYEKKKKEAIEKHLEKLKAKDKEAAERFLKELEEAAKEYAKDEAKTMSEEEAKRRAKKYKEKVLLSELSEEEQKEIKEAEEKLVRTIDKYVEEAAK | 11.4 nM |
| E4V (designed binder) SMEVEVEKAAKEYEKKKKEAIEKHLEKLKAKDKEAAERFLKELEEAAKEYAKDEAKTMSEEEAKRRAKKYKEKVLLSELSEEEQKEIKEAEEKLVRTILKYVEEAAK | 1.05 nM |
| K69V (designed binder) SMEEEVEKAAKEYEKKKKEAIEKHLEKLKAKDKEAAERFLKELEEAAKEYAKDEAKTMSEEEAKRRAKVYKEKVLLSELSEEEQKEIKEAEEKLVRTILKYVEEAAK | 0.49 nM |
| K64F (designed binder) SMEEEVEKAAKEYEKKKKEAIEKHLEKLKAKDKEAAERFLKELEEAAKEYAKDEAKTMSEEEAFRRAKKYKEKVLLSELSEEEQKEIKEAEEKLVRTILKYVEEAAK | 0.49 nM |
| E5R (designed binder) SMEERVEKAAKEYEKKKKEAIEKHLEKLKAKDKEAAERFLKELEEAAKEYAKDEAKTMSEEEAKRRAKKYKEKVLLSELSEEEQKEIKEAEEKLVRTILKYVEEAAK | 0.446 nM |
| E14T (designed binder) SMEEEVEKAAKEYTKKKKEAIEKHLEKLKAKDKEAAERFLKELEEAAKEYAKDEAKTMSEEEAKRRAKKYKEKVLLSELSEEEQKEIKEAEEKLVRTILKYVEEAAK | 11.4 nM |
| Q84K (designed binder) SMEEEVEKAAKEYEKKKKEAIEKHLEKLKAKDKEAAERFLKELEEAAKEYAKDEAKTMSEEEAKRRAKKYKEKVLLSELSEEEKKEIKEAEEKLVRTILKYVEEAAK | 7.07 nM |
| L40P (designed binder) SMEEEVEKAAKEYEKKKKEAIEKHLEKLKAKDKEAAERFPKELEEAAKEYAKDEAKTMSEEEAKRRAKKYKEKVLLSELSEEEQKEIKEAEEKLVRTILKYVEEAAK | 10.4 nM |
| K27I (designed binder) SMEEEVEKAAKEYEKKKKEAIEKHLEILKAKDKEAAERFLKELEEAAKEYAKDEAKTMSEEEAKRRAKKYKEKVLLSELSEEEQKEIKEAEEKLVRTILKYVEEAAK | 1.05 nM |

Source: publication PMC12416549 (2024)
